Key:
[1] = target: Q68SA9
[2] = target: T1, purified recombinant human HA-tagged EFEMP1/Fibulin-3 (R&D, 8416-FB), Q12805
T1 chain: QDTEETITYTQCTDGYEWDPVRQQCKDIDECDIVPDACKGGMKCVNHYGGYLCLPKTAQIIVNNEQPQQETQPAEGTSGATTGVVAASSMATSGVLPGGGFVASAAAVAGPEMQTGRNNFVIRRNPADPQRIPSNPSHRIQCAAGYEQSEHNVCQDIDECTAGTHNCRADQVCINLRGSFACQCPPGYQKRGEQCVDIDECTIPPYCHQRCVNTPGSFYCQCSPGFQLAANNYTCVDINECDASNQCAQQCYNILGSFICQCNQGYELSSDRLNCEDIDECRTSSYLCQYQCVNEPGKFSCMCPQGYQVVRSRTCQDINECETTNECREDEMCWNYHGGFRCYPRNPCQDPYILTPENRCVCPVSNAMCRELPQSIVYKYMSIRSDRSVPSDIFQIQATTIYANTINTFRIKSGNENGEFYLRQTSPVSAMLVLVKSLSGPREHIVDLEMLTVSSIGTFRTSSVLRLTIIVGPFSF

B1: purified full-length mouse ADAMTS7 S3A WT 3xFlag (protein)
chain: SVAKEKWVETLVVADSKMVEYHGQPQVESYVLTIMNMVAGLFHDPSIGNPIHISIVRLIILEDEEKDLKITHHAEETLKNFCRWQKNINIKGDDHPQHHDTAILLTRKDLCASMNQPCETLGLSHVSGLCHPQLSCSVSEDTGMPLAFTVAHELGHSFGIQHDGTGNDCESIGKRPFIMSPQLLYDRGIPLTWSRCSREYITRFLDRGWGLCLDDRPSKDVIALPSVLPGVLYDVNHQCRLQYGSHSAYCEDMDDVCHTLWCSVGTTCHSKLDAAVDGTSCGKNKWCLKGECVPEGFQPEAVDGGWSGWSAWSDCSRSCGVGVRSSERQCTQPVPKNRGKYCVGERKRSQLCNLPACPPDRPSFRHTQCSQFDGMLYKGKLHKWVPVPNDDNPCELHCRPSNSSNTEKLRDAVVDGTPCYQSRISRDICLNGICKNVGCDFVIDSGAEEDRCGVCRGDGSTCQTVSRTFKETEGQGYVDIGLIPAGAREILIEEVAEAANFLALRSEDPDKYFLNGGWTIQWNGDYRVAGTTFTYARKGNWENLTSPGPTSEPVWIQLLFQEKNPGVHYQYTIQRDSHDQVRPPEFSWHYGPWSKCTVTCGTGVQRQSLYCMERQAGVVAEEYCNTLNRPDERQRKCSEEPCPPRWWAGEWQPCSRSCGPEGLSRRAVFCIRSMGLDEQRALELSACEHLPRPLAETPCNRHVICPSTWGVGNWSQCSVTCGAGIRQRSVLCINNTDVPCDEAERPITETFCFLQPCQYPMYIVDTGASGSGSSSPELFNEVDFIPNQLAPRPSPASSPKPVSISNAIDEEELDPPGPVFVDDFYYDYNFINFHEDLSYGSFEEPHPDLVDNGGWTAPPHIRPTESPSDTPVPTAGALGAEAEDIQGSWSPSPLLSEASYSPPGLEQTSINPLANFLTEEDTPMGAPELGFPSLPWPPASVDDMMTPVGPGNPDELLVKEDEQSPPSTPWSDRNKLSTDGNPLGHTSPALPQSPIPTQPSPPSISPTQASPSPDVVEVSTGWNAAWDPVLEADLKPGHGELPSTVEVASPPLLPMATVPGIWGRDSPLEPGTPTFSSPELSSQHLKTLTMPGTLLLTVPTDLRSPGPSGQPQTPNLEGTQSPGLLPTPARETQTNSSKDPEVQPLQPSLEEDGDPADPLPARNASWQVGNWSQCSTTCGLGAIWRLVSCSSGNDEDCTLASRPQPARHCHLRPCAAWRTGNWSKCSRNCGGGSSTRDVQCVDTRDLRPLRPFHCQPGPTKPPNRQLCGTQPCLPWYTSSWRECSEACGGGEQQRLVTCPEPGLCEESLRPNNSRPCNTHPCTQWVVGPWGQCSAPCGGGVQRRLVRCVNTQTGLAEEDSDLCSHEAWPESSRPCATEDCELVEPPRCERDRLSFNFCETLRLLGRCQLPTIRAQCCRSCPPLSRGVPSRGHQRVARR
auto-cleavage, peptide sequencing of the purified protein [1]: Peptide sequencing (Tufts University Core Facility) of the lower band or the total purified WT S3A protein identified a potential auto-cleavage site at F1062 (SYGS|FEEP)
in vitro cleavage, 4 hours at 37 C, western blot [2]: Full-length HA-EFEMP1 was detected at the expected position and a lower band was detected matching the predicted HA tagged amino terminus after cleavage by ADAMTS7 in the atypical first EGF domain
